Laboratory results taken from the supplement of paper PMC6757056.
± gives the standard deviation of the averaged measurements.

B1: library; a variant is named by its letters at N, in order (parent)
chain: GCUGUCACCGGUGUAUUACCCUAGUGGUCGACCGGUCUGAUGAGUCUNNNNNNAGACGAAACAGC

Experiments:
hypoxanthine [1] = variants of: B1; assay: normalized RNA/DNA level with ligand (relative to sTRSVctl = 100) (log10 (% of sTRSVctl)); ligand: hypoxanthine (xanthine aptamer); higher = less ribozyme self-cleavage, higher mRNA level; conditions: ligand concentration (+) RNA-Seq: 5 mM, HEK293T, reporter: mCherry (pCS4076), ligand present: yes
In short: (§1)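 Total RNA, extracted with EDTA 72 h after HEK293T cells were transfected with 4 µg per 6-well well of reporter-linked ribozyme switch library plasmids, was reverse-transcribed, amplified, barcoded and sequenced. Ligand, if used, was added 1 h before transfection. RNA level was derived from RNA reads divided by DNA reads and normalized to a spiked-in non-cleaving sequence or to the top sequences. This was multiplied by 100 and log10-transformed, with the top set of 25 sequences and a ≥100 DNA read minimum.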

hypoxanthine [2] = variants of: B1; assay: normalized RNA/DNA level without ligand (relative to sTRSVctl = 100) (log10 (% of sTRSVctl)); ligand: hypoxanthine (xanthine aptamer); higher = less ribozyme self-cleavage, higher mRNA level; conditions: HEK293T, reporter: mCherry (pCS4076), ligand present: no
In short: as §1

Row | Variant | normalized RNA/DNA level with ligand (log10) (hypoxanthine [1]) | normalized RNA/DNA level without ligand (log10) (hypoxanthine [2])
1 | GCGGCA | 1.94 ± 0.055 | 1.7 ± 0.052
2 | GCGGCU | 1.971 ± 0.0061 | 1.84 ± 0.04
3 | GCGGCC | 2 ± 0.046 | 1.76 ± 0.076
4 | CCGGCC | 1.98 ± 0.029 | 2 ± 0.051
5 | CCGGCA | 1.97 ± 0.03 | 1.895 ± 0.0097
6 | CCGGCG | 1.94 ± 0.13 | 1.72 ± 0.14
7 | CCGGCU | 2.04 ± 0.043 | 1.99 ± 0.024
8 | ACCUAA | 1.942 ± 0.012 | 1.87 ± 0.028
9 | ACCUAU | 1.908 ± 0.015 | 1.792 ± 0.0054
10 | UCGGGC | 2.021 ± 0.017 | 1.99 ± 0.0053
11 | UCGGGU | 1.81 ± 0.075 | 1.55 ± 0.13
12 | UCGGGG | 1.98 ± 0.05 | 1.69 ± 0.035
13 | GCCGGA | 1.95 ± 0.043 | 1.93 ± 0.065
14 | GCCGGG | 1.94 ± 0.023 | 1.87 ± 0.06
15 | GCCGGC | 1.96 ± 0.066 | 1.762 ± 0.015
16 | CCGCAU | 1.96 ± 0.048 | 1.786 ± 0.0041
17 | CCGCAA | 1.95 ± 0.04 | 1.78 ± 0.046
18 | CCGCAC | 1.964 ± 0.013 | 1.754 ± 0.0073
19 | CCCGUA | 1.92 ± 0.015 | 1.85 ± 0.035
20 | CCCGUU | 1.93 ± 0.056 | 1.9 ± 0.024

Row | Variant | normalized RNA/DNA level with ligand (log10) (hypoxanthine [1]) | normalized RNA/DNA level without ligand (log10) (hypoxanthine [2])
21 | CCCGUC | 2.027 ± 0.018 | 2.021 ± 0.019
22 | CCCGUG | 1.97 ± 0.026 | 1.812 ± 0.0064
23 | GCGCGA | 1.844 ± 0.0031 | 1.51 ± 0.025
24 | GCGCGC | 1.93 ± 0.082 | 1.68 ± 0.026
25 | GCGCGU | 1.92 ± 0.064 | 1.58 ± 0.12
26 | UCGCGA | 1.89 ± 0.03 | 1.69 ± 0.071
27 | UCGCGG | 1.93 ± 0.1 | 1.78 ± 0.037
28 | UCGCGC | 2.01 ± 0.035 | 1.8 ± 0.024
29 | UCGCAU | 1.87 ± 0.022 | 1.68 ± 0.018
30 | UCGCAC | 1.97 ± 0.069 | 1.827 ± 0.014
31 | UCCGGU | 1.98 ± 0.037 | 1.83 ± 0.054
32 | UCCGGC | 2.019 ± 0.0041 | 1.85 ± 0.056
33 | GCCUUU | 1.94 ± 0.041 | 1.92 ± 0.039
34 | UCCUGA | 1.974 ± 0.017 | 1.77 ± 0.069
35 | UCCUGU | 1.93 ± 0.021 | 1.86 ± 0.043
36 | ACGACC | 1.97 ± 0.051 | 1.85 ± 0.02
37 | CCCCUG | 1.927 ± 0.0039 | 1.81 ± 0.04
38 | CCCCUU | 2 ± 0.045 | 1.913 ± 0.014
39 | CCCCUA | 1.98 ± 0.061 | 1.855 ± 0.0056
40 | UCGAGG | 1.89 ± 0.036 | 1.59 ± 0.056

Row | Variant | normalized RNA/DNA level with ligand (log10) (hypoxanthine [1]) | normalized RNA/DNA level without ligand (log10) (hypoxanthine [2])
41 | UCGAGC | 1.97 ± 0.029 | 1.6 ± 0.1
42 | UCCGUA | 1.956 ± 0.0079 | 1.7408 ± 0.0014
43 | UCCGUC | 1.97 ± 0.059 | 2.03 ± 0.042
44 | GCGCUG | 1.86 ± 0.028 | 1.36 ± 0.03
45 | GCGCUA | 1.88 ± 0.067 | 1.68 ± 0.031
46 | GCGCUU | 1.96 ± 0.065 | 1.76 ± 0.046
47 | GCGCUC | 1.919 ± 0.015 | 1.64 ± 0.052
48 | CCGGAU | 1.9742 ± 0.0018 | 1.777 ± 0.012
49 | CCCCCU | 2.01 ± 0.038 | 1.976 ± 0.014
50 | CCCCCG | 1.92 ± 0.064 | 1.93 ± 0.044
51 | CCCCCA | 1.94 ± 0.029 | 1.889 ± 0.0072
52 | GCGCCU | 2 ± 0.055 | 1.78 ± 0.052
53 | GCGCCG | 1.91 ± 0.03 | 1.44 ± 0.017
54 | GCGCCA | 1.97 ± 0.025 | 1.711 ± 0.01
55 | ACGAUU | 1.837 ± 0.0076 | 1.32 ± 0.019
56 | ACGAUC | 1.963 ± 0.0088 | 1.89 ± 0.013
57 | ACGCAC | 1.89 ± 0.022 | 1.7 ± 0.041
58 | ACCCUU | 1.974 ± 0.013 | 1.92 ± 0.06
